B1: ANKRD9 (parent)
chain: LLEDMRASEAFHWDERGRAAAYSP
B2: EPB41L3 (parent)
chain: SELGDYDPDECGSDYISEFRFAPN

Variants of: B1
Test: protein stability index of a GFP-peptide fusion (GPS, HEK-293T) (PSI 1-6); higher = more stable
Conditions: c terminus: a fixed tail appended
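Note: lentivirally expressed fusions sorted by FACS into six bins by GFP to DsRed ratio, PSI derived from sequencing read proportions per bin multiplied by bin number.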

Variant	protein stability index
LLEDERASEAFHWDERGRAAAYSP	4.66
LLEDFRASEAFHWDERGRAAAYSP	3.94
LLEDLRASEAFHWDERGRAAAYSP	1.6
LLEDIRASEAFHWDERGRAAAYSP	2.89
LLEDQRASEAFHWDERGRAAAYSP	3.91
LLEDGRASEAFHWDERGRAAAYSP	3.94
LLEDTRASEAFHWDERGRAAAYSP	4.12
LLEDVRASEAFHWDERGRAAAYSP	3.77
LLEDPRASEAFHWDERGRAAAYSP	4.09
LLEDKRASEAFHWDERGRAAAYSP	3.97
LLEDYRASEAFHWDERGRAAAYSP	3.83
LLEDNRASEAFHWDERGRAAAYSP	4.1
LLEDARASEAFHWDERGRAAAYSP	3.92
LLEDSRASEAFHWDERGRAAAYSP	3.3
LLEDHRASEAFHWDERGRAAAYSP	3.39
LLEDWRASEAFHWDERGRAAAYSP	3.64
LMEDMRASEAFHWDERGRAAAYSP	2.67
LEEDMRASEAFHWDERGRAAAYSP	4.52
LHEDMRASEAFHWDERGRAAAYSP	4.13
LFEDMRASEAFHWDERGRAAAYSP	2.53
LWEDMRASEAFHWDERGRAAAYSP	1.9
LYEDMRASEAFHWDERGRAAAYSP	1.71

Variant	protein stability index
LIEDMRASEAFHWDERGRAAAYSP	4.67
LVEDMRASEAFHWDERGRAAAYSP	3.17
LCEDMRASEAFHWDERGRAAAYSP	4.06
LQEDMRASEAFHWDERGRAAAYSP	3.66
LNEDMRASEAFHWDERGRAAAYSP	3.3
LGEDMRASEAFHWDERGRAAAYSP	3.74
LKEDMRASEAFHWDERGRAAAYSP	3.25
LDEDMRASEAFHWDERGRAAAYSP	3.98
LPEDMRASEAFHWDERGRAAAYSP	4.37
LAEDMRASEAFHWDERGRAAAYSP	3.15
LSEDMRASEAFHWDERGRAAAYSP	3.94
LREDMRASEAFHWDERGRAAAYSP	3.27
LTEDMRASEAFHWDERGRAAAYSP	3.88
LLEDMKASEAFHWDERGRAAAYSP	2.85
LLEDMSASEAFHWDERGRAAAYSP	2.9
LLEDMDASEAFHWDERGRAAAYSP	4.03
LLEDMVASEAFHWDERGRAAAYSP	2.43
LLEDMNASEAFHWDERGRAAAYSP	2.97
LLEDMWASEAFHWDERGRAAAYSP	1.87
LLEDMHASEAFHWDERGRAAAYSP	2.95
LLEDMMASEAFHWDERGRAAAYSP	2.17
LLEDMTASEAFHWDERGRAAAYSP	2.5

Variant	protein stability index
LLEDMEASEAFHWDERGRAAAYSP	3.96
LLEDMIASEAFHWDERGRAAAYSP	2.32
LLEDMYASEAFHWDERGRAAAYSP	2.43
LLEDMLASEAFHWDERGRAAAYSP	1.1
LLEDMFASEAFHWDERGRAAAYSP	2.79
LLEDMAASEAFHWDERGRAAAYSP	3.56
LLEDMPASEAFHWDERGRAAAYSP	3.27
LLEDMCASEAFHWDERGRAAAYSP	3.6
PLEDMRASEAFHWDERGRAAAYSP	4.77
FLEDMRASEAFHWDERGRAAAYSP	3.36
QLEDMRASEAFHWDERGRAAAYSP	4.37
YLEDMRASEAFHWDERGRAAAYSP	3.54
DLEDMRASEAFHWDERGRAAAYSP	4.18
TLEDMRASEAFHWDERGRAAAYSP	4.04
KLEDMRASEAFHWDERGRAAAYSP	3.4
SLEDMRASEAFHWDERGRAAAYSP	4.22
MLEDMRASEAFHWDERGRAAAYSP	2.52
CLEDMRASEAFHWDERGRAAAYSP	3.2
RLEDMRASEAFHWDERGRAAAYSP	3.93
ILEDMRASEAFHWDERGRAAAYSP	2.44
VLEDMRASEAFHWDERGRAAAYSP	2.91
ALEDMRASEAFHWDERGRAAAYSP	3.72

Variant	protein stability index
WLEDMRASEAFHWDERGRAAAYSP	3.01
NLEDMRASEAFHWDERGRAAAYSP	3.97
ELEDMRASEAFHWDERGRAAAYSP	4.29
HLEDMRASEAFHWDERGRAAAYSP	4.71
LLDDMRASEAFHWDERGRAAAYSP	1.92
LLFDMRASEAFHWDERGRAAAYSP	2.08
LLADMRASEAFHWDERGRAAAYSP	2.72
LLYDMRASEAFHWDERGRAAAYSP	1.55
LLRDMRASEAFHWDERGRAAAYSP	3.42
LLQDMRASEAFHWDERGRAAAYSP	2.38
LLLDMRASEAFHWDERGRAAAYSP	3.26
LLKDMRASEAFHWDERGRAAAYSP	2.49
LLTDMRASEAFHWDERGRAAAYSP	2.31
LLIDMRASEAFHWDERGRAAAYSP	1.85
LLMDMRASEAFHWDERGRAAAYSP	1.15
LLSDMRASEAFHWDERGRAAAYSP	1.43
LLHDMRASEAFHWDERGRAAAYSP	2.19
LLPDMRASEAFHWDERGRAAAYSP	4.09
LLCDMRASEAFHWDERGRAAAYSP	1.51
LLNDMRASEAFHWDERGRAAAYSP	1.32
LLEDMRFSEAFHWDERGRAAAYSP	2.64
LLEDMRDSEAFHWDERGRAAAYSP	2.51

Variant	protein stability index
LLEDMRCSEAFHWDERGRAAAYSP	1.8
LLEDMRESEAFHWDERGRAAAYSP	1.27
LLEMMRASEAFHWDERGRAAAYSP	1.44
LLEVMRASEAFHWDERGRAAAYSP	2.19
LLEPMRASEAFHWDERGRAAAYSP	3.91
LLETMRASEAFHWDERGRAAAYSP	2.62
LLEQMRASEAFHWDERGRAAAYSP	2.14
LLELMRASEAFHWDERGRAAAYSP	1.64
LLEIMRASEAFHWDERGRAAAYSP	2
LLEFMRASEAFHWDERGRAAAYSP	2
LLENMRASEAFHWDERGRAAAYSP	2.5
LLECMRASEAFHWDERGRAAAYSP	2.44
LLEKMRASEAFHWDERGRAAAYSP	2.37
LLEEMRASEAFHWDERGRAAAYSP	2.03
LLEWMRASEAFHWDERGRAAAYSP	1.52
LLEGMRASEAFHWDERGRAAAYSP	2.52
LLESMRASEAFHWDERGRAAAYSP	2.23
LLEAMRASEAFHWDERGRAAAYSP	2.36
LLEYMRASEAFHWDERGRAAAYSP	1.9
LLEHMRASEAFHWDERGRAAAYSP	2.69

Variants of: B2
Test: as above
Conditions: c terminus: a fixed tail appended

Variant	protein stability index
SELPDYDPDECGSDYISEFRFAPN	2.23
SELQDYDPDECGSDYISEFRFAPN	2
SELRDYDPDECGSDYISEFRFAPN	2.67
SELVDYDPDECGSDYISEFRFAPN	2.06
SELEDYDPDECGSDYISEFRFAPN	2.43
SELFDYDPDECGSDYISEFRFAPN	1.79
SELLDYDPDECGSDYISEFRFAPN	2
SELGDYDPDECKSDYISEFRFAPN	1.9
SELGDYDPDECESDYISEFRFAPN	2.11
SELGDYDPDECRSDYISEFRFAPN	1.77
SELGDYDPDECSSDYISEFRFAPN	2.15
SELGDYDPDECGKDYISEFRFAPN	1.82
SELGDYDPDECGTDYISEFRFAPN	1.69
SELGDYDPDECGGDYISEFRFAPN	2.09
DELGDYDPDECGSDYISEFRFAPN	2.43
SECGDYDPDECGSDYISEFRFAPN	2.15
SENGDYDPDECGSDYISEFRFAPN	2.22
SELGDYDPDECGSDYISEHRFAPN	4.85
SELGDYDPDECGSDYISERRFAPN	4.78
SELGDSDPDECGSDYISEFRFAPN	2.11
SELGDGDPDECGSDYISEFRFAPN	2.48
SELGDNDPDECGSDYISEFRFAPN	2.15
SELGDEDPDECGSDYISEFRFAPN	2.37
SELGDYDPDECGSDYISEFRFATN	3.15
SELGDYDPDECGSDYISEFRFAWN	2.47
SELGDYDPDECGSDYISEFRFAMN	3.26
SELGDYDPDEWGSDYISEFRFAPN	1.68

Variant	protein stability index
SELGDYDPDEVGSDYISEFRFAPN	1.91
SELGDYDPDEDGSDYISEFRFAPN	2.8
SELGDYDPDEHGSDYISEFRFAPN	1.6
SELGDYDPDEPGSDYISEFRFAPN	1.78
SELGDYDEDECGSDYISEFRFAPN	2.29
SELGDYDKDECGSDYISEFRFAPN	2.11
SELGDYDQDECGSDYISEFRFAPN	2.03
SELGDYDTDECGSDYISEFRFAPN	1.92
SELGDYDPDECGSAYISEFRFAPN	1.46
SELGDYDPDECGSGYISEFRFAPN	1.27
SELGDYDPDECGSKYISEFRFAPN	1.49
SELGDYDPDECGSDYIVEFRFAPN	2.2
SELGDYDPDECGSDYIPEFRFAPN	1.52
SELGDYDPDECGSDYIHEFRFAPN	1.88
SELGDYDPDECGSDYINEFRFAPN	2.57
SELGDYDPNECGSDYISEFRFAPN	1.55
SELGDYDPAECGSDYISEFRFAPN	1.93
SELGDYDPHECGSDYISEFRFAPN	1.92
SELGDYFPDECGSDYISEFRFAPN	2.29
SELGDYRPDECGSDYISEFRFAPN	2.44
SELGDYCPDECGSDYISEFRFAPN	1.71
SELGDYWPDECGSDYISEFRFAPN	2.1
SELGDYVPDECGSDYISEFRFAPN	1.61
SELGDYGPDECGSDYISEFRFAPN	2.29
SELGDYMPDECGSDYISEFRFAPN	1.93
SELGDYDPDECGSDYASEFRFAPN	4.33
SELGDYDPDECGSDYHSEFRFAPN	4.14

Variant	protein stability index
SMLGDYDPDECGSDYISEFRFAPN	1.81
SVLGDYDPDECGSDYISEFRFAPN	2.04
SQLGDYDPDECGSDYISEFRFAPN	1.9
SELGDYDPDECGSDYISEFVFAPN	4.4
SELGDYDPDECGSDYISEFWFAPN	3.92
SELGDYDPDECGSDYISEFRPAPN	4.96
SELGDYDPDECGSDYISEFRKAPN	5.22
SELGDYDPDECGSDYISEFRAAPN	4.75
SELGDYDPDECGSDYISEFRIAPN	4.38
SELGDYDPDECGSDYISEFRNAPN	4.74
SELGDYDPDECGSDYISPFRFAPN	1.66
SELGDYDPDECGSDYISRFRFAPN	2.11
SELGDYDPDECGSDYISGFRFAPN	2.16
SELGDYDPDECGSDYISIFRFAPN	2.41
SELGDYDPDRCGSDYISEFRFAPN	2.26
SELGDYDPDCCGSDYISEFRFAPN	2.38
SELGDYDPDYCGSDYISEFRFAPN	1.55
SELGDYDPDECGSDKISEFRFAPN	2.77
SELGDYDPDECGSDQISEFRFAPN	3.05
SELGAYDPDECGSDYISEFRFAPN	1.96
SELGFYDPDECGSDYISEFRFAPN	1.68
SELGDYDPDECGSDYISEFRFAPV	2.55
SELGDYDPDECGSDYISEFRFAPY	2.15
SELGDYDPDECGSDYISEFRFAPA	2.6
SELGDYDPDECGSDYISEFRFAPE	3.33
SELGDYDPDECGSDYISEFRFAPF	2.25

From the supplement of paper PMC10567573
